Literature values, collected in publication PMC6873222.

How the values were obtained:
SIRPG ECD (Homo sapiens) = SIRPG ECD (Homo sapiens) (UniProt Q9P1W8)
CD55 ECD (Homo sapiens) = CD55 ECD (Homo sapiens) (UniProt P08174)
Chain of UniProt P08174 (P08174 35-353): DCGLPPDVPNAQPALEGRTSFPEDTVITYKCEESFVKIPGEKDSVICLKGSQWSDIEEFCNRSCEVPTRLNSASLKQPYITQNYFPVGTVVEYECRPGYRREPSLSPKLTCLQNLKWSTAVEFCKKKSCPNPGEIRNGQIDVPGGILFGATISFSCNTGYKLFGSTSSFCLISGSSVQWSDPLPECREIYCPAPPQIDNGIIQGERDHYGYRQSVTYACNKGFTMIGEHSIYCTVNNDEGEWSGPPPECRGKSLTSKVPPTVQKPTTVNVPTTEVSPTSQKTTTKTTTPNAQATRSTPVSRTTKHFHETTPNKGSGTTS

Chain of UniProt Q9P1W8 (Q9P1W8 29-360): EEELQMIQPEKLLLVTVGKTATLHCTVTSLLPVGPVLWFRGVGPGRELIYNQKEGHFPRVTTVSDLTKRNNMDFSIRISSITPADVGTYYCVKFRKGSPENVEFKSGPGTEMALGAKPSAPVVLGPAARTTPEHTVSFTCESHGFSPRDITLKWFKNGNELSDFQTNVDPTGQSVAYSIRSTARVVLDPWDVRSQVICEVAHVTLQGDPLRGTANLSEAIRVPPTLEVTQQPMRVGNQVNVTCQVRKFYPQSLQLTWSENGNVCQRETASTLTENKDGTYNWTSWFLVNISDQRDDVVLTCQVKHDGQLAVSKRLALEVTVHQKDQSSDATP

| Kd (SIRPG ECD (Homo sapiens)) [µM] | Kd (CD55 ECD (Homo sapiens)) [µM] | Substance |
| --- | --- | --- |
| 23 | – | CD47 ECD (from UniProt Q08722) |
| – | > 80 | CD97 ECD (from UniProt P48960) |
